Source: the nanobody polyreactivity screen of Harvey et al. (2022)

Assay: yeast display, Sf9 membrane polyspecificity reagent, FACS + sequencing; frameworks hold sequencing errors
How it was run: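 Polyreactivity labels are assigned by the sorting gate from which each nanobody was recovered. The gates were low and high (top ~1%), set on anti-HA fluorescence for expression and streptavidin fluorescence for reagent binding. Before sorting, galactose-induced (36–48 hours) yeast display cells were stained for 1 hour at 4 °C with 10% biotinylated, detergent-solubilized Sf9 membrane reagent.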

Sequence | polyreactivity (PSR sort gate)
QVQLVETGGGLVQAGGSLRLSCAASGSIFVRNAMGWYRQAPGKERELVAAINRDGGRTYYADSVKGRFTISRDNAKNTVYLQMNSLKPEDTAVYYCNAGGVSFEYGYWGQGTQVTVSS | high polyreactivity
QVQLVESGGGLVQAGGSLRLSCAASGNTSPFYAMGWYRQAPGKERELVAAISANGGSTTYADSVKGRFTISRDNAKNTVYLQMNSLKPEDTALYYCNALSLLSDGAASVDQVTFDYWGQGTQVTVSS | low polyreactivity
QVQLVESGGGLVQAGGSLRLSCAASGITFRSYAMGWYRQAPGKDRELVAAISRTGGRTYYADSVKGRFTISRDNAKNTVYLQMNSLKAEDSAVYYCAAGGYSPYSLVGYDYWGQGTQVTVSS | high polyreactivity
QVQLVESGGGLVQAGGSLRLSCAASGRTGVNAMGWYRQAPGKERGMVAAINTSVGRTYYADSVKGRFTISRDNAKNTVYLQMNSLKPEDTAVYYCNTDRLGAARYDYWGQGTQVTVSS | low polyreactivity
QVQLVESGGGLVQAGGSLRLSCAASGSTIYHYTMECYRQAPGKERELVAAITYSGGRTYYADSVKGRFTISRDNAKNTVYLQMNSLKPEDTAVYYCAATYSTPGAGYYHYWGQGTQVTVSS | high polyreactivity
QVQLVESGGGLVQAGGSLRLSCAASGRTFWVNTMGWYRQAPGKERELVAGITRSGTRTYYADSVKGRFTISRDNAKNTVYLQMNSLKPEDTAVYYCATGPWRYRYDYWGQGTQVTVSS | low polyreactivity
QVQLVESGGGLVQAGGSLRLSCAASGSIFVVYAMGWYRPAHGKERELVAAIDSGGSTYYADSVKGRFTISRDNAKNTVYLQMNSMKTEDTAVYYCAADIYYYLWGLYYWGQGTQVTVSS | low polyreactivity
QVLLQESGGGLVQAGGSLRLSCAASGTISTDIRMGLYSLAPGKAREFVASIDGCSTTYYADSVKGRFTISRDNAKNTVYLKMNSLKPVDTAMYYCAAREATEFYLYYWGQGTQVTVSS | low polyreactivity
QVQLVESGGGLVQAGGSLRLSCAASGSTFTRYGMGWYRQAPGKEREMVAAITTSGSSTYYADSVKGRFTISRDNAKNTVYLQMNSLKPEDTAVYYCAADWSSWGFDYWGQGTQVNVSS | low polyreactivity
QVQLVESGGGIVQAGGSLRLSCTASGFTFVYYAMGWYRQAPGKERELVASISRSGGSTYYADSVKGRFTISRDNAKNTVYLQMNSLKPEDTGVYYCNARYGRTALLDYWGQGTQVTVSS | high polyreactivity
QVQLGESGGGLVQAGGSLRLSCAASGRIFPVNAMGWYRQAPGKERELVATITSYSSTYADSVKGRFTISRDNAMNTVVLQMNCLKPEDTAVYYCNADQGYFGYDYWGQGTQVTVSS | low polyreactivity
QVQLVESGGGLVQAGGSLRLSCAASGLIFYRNAMGWYRQAPGKERELVAGISASGGRTYYADSVNGRFTISRDNAKNTVYLQMNSLKPEDTAVYYCNRPSIYRYPQRLLGNFWGQGTQVTVSS | high polyreactivity
QGQLVESGGGLLQAGGSLRLSCAASGRTFPYNALGWYRQAPGKERELVAAMSSGTRTDSADAVKGRFTISRDTAKNTVYLQMNSLKPEATAVYYWAADDYHYLWRADGFDYWGQGTQVTVSS | high polyreactivity
QVQLVESGGGLVQAGGSLRLSCAASGRIFSGYAMGWYRQAPGKEWELVAAITWSGGSTYADSVKGRFTISRDNAKHTVYLQMNTLKPEDTAVYYCNTSARYNGSYKYDYWGQGTQVTVSS | low polyreactivity
QEQLQESGGGLVQAGGSLRLSCAASGNIYDADIMGWYRQAPGKERELVTSITDGGSTNYADSVKGRFTISRDNAKNTVYLQMNSLKPEDTAVYYCAAIAYPDIPTSFDYNSDYSYWGQGTQVTVSS | low polyreactivity
QVQLVESGGGLVQAGGSLRLSCAASGSTFRVYAMGWYRQAPGKERELVAAISWSGGRTYYADSVKGRFTISRDNAKNTVYLQMNSLKPEDTAVYYCAKPGYLRPSRYDYWGQGTQVTVSS | high polyreactivity
QVQLVESGGGLVQAGGSLRLSCAASGITFTDYAMGWYRQAPGKERELVAAISSRGGSTYYADSVQGRFTISRDNAKNTVYVQMNSLKPEDTAVHYCNARFVRRGSGYDYWGQGTQVTVSS | high polyreactivity
